In patent US20200299400A1 (published 2020):

Key:
hCD40-Fc = molecular target: T1, hCD40-Fc (human, UniProt P25942 21-193); assay: SPR; dAb-Fc analyte on immobilized hCD40-Fc; avidity-influenced KDapparent
T1 construct: Immobilized on the sensor chip; construct not described; not shown: Fc part of hCD40-Fc not described

[1] = molecular target: T2, human CD73 on human cell lines (human, UniProt P21589 27-549); assay: cell-based or functional assay
T2 sequence (looked up): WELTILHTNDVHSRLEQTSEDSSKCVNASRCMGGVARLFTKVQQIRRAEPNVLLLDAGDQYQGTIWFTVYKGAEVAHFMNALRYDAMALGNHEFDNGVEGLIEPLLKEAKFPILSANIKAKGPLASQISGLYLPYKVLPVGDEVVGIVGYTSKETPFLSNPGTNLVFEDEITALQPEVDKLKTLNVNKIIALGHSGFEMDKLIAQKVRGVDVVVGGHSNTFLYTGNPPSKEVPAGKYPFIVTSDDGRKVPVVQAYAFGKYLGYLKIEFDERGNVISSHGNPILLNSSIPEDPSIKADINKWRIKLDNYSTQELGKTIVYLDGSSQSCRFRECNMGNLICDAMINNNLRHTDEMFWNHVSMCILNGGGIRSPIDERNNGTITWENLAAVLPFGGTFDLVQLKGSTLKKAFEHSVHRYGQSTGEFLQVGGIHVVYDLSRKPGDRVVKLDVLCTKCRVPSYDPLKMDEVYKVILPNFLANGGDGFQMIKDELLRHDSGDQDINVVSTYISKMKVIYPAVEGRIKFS

T1 sequence (P25942 21-193): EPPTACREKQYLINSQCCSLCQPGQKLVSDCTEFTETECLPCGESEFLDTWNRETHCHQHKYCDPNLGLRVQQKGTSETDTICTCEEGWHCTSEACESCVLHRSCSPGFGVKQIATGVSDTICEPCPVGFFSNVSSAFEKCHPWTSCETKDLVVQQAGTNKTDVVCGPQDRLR

B1: 3h56-269-IgG1.3f (Fc fusion)
chain: EVQLLESGGGLVQPGGSLRLSCAASGFTFRDYEMWWVRQAPGKGLERVSAINPQGTRTYYADSVKGRFTISRDNSKNTLYLQMNSLRAEDTAVYYCAKLPFRFSDRGQGTLVTVSSASTEPKSCDKTHTCPPCPAPEAEGAPSVFLFPPKPKDTLMISRTPEVTCVVVDVSHEDPEVKFNWYVDGVEVHNAKTKPREEQYNSTYRVVSVLTVLHQDWLNGKEYKCKVSNKALPAPIEKTISKAKGQPREPQVYTLPPSREEMTKNQVSLTCLVKGFYPSDIAVEWESNGQPENNYKTTPPVLDSDGSFFLYSKLTVDKSRWQQGNVFSCSVMHEALHNHYTQKSLSLSPGK
With B1 the Kd (hCD40-Fc) was < 1 nM.

B2: 3h56-269-IgG1.1f (Fc fusion)
chain: EVQLLESGGGLVQPGGSLRLSCAASGFTFRDYEMWWVRQAPGKGLERVSAINPQGTRTYYADSVKGRFTISRDNSKNTLYLQMNSLRAEDTAVYYCAKLPFRFSDRGQGTLVTVSSASTEPKSCDKTHTCPPCPAPEAEGAPSVFLFPPKPKDTLMISRTPEVTCVVVDVSHEDPEVKFNWYVDGVEVHNAKTKPREEQYNSTYRVVSVLTVLHQDWLNGKEYKCKVSNKALPSSIEKTISKAKGQPREPQVYTLPPSREEMTKNQVSLTCLVKGFYPSDIAVEWESNGQPENNYKTTPPVLDSDGSFFLYSKLTVDKSRWQQGNVFSCSVMHEALHNHYTQKSLSLSPGK
In the case of B2, the Kd (hCD40-Fc) is reported as < 1 nM.

B3: CD73.3-IgG1.1 (antibody, V domains shown)
VH: EVQLVESGGGLVQPGRSLRLSCAASGFTFDDYAMHWVRQAPGKGLEWVSGISWKSGSIGYADSVKGRFTISRDNAKNSLYLQMNSLRAEDTVLYYCVKGYYVILTGLDYWGQGTLVTVSS
VL: not shown
For B3, the “% internalization, H2228” value [1] was 47%.
